Laboratory results: publication PMC2776932 (The Febs Journal, 2009)

Biological target: T1, GFP-tagged Lsm188p (Lsm8p with the N-terminal domain of Lsm1p) (S. cerevisiae, UniProt P47017 1-51; P47093 11-109)
T1 chain (looked up): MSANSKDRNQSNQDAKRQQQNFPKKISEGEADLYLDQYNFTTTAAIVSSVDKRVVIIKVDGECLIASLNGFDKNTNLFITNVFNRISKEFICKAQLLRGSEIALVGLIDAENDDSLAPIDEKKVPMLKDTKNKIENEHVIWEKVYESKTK
Test: co-IP

B1: Lsm7–Myc (genomically encoded Lsm7p with 13myc tag) (natural protein, S. cerevisiae, UniProt P53905 1-115, looked up)
chain: MHQQHSKSENKPQQQRKKFEGPKREAILDLAKYKDSKIRVKLMGGKLVIGVLKGYDQLMNLVLDDTVEYMSNPDDENNTELISKNARKLGLTVIRGTILVSLSSAEGSDVLYMQK
- reduction of co-precipitated Lsm7p against wild-type: > 50 % reduction
